This sample holds only a part of the variants without activity.
B1: TPR 5TU (parent)
chain: GGAUCUUCUCGAUCUAACAAAAAAGACAAAUCUGCCACAAAGCUUGAGAGCAUCUUCGGAUGCAGAGGCGGCAGCCUUCGGUGGCGCGAUAGCGCCAACGUUCUCAACUAUGACACGCAAAACGCGUGCUCCGUUGAAUGGAGUUUAUCAUG

Variants of: B1
Assay: polymerase ribozyme fitness, log enrichment relative to wild type (log ratio); higher = more active; in vitro selection for triplet polymerase activity
Method in brief: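 Mutant libraries were PCR-built and transcribed for each subunit of a heterodimeric triplet polymerase ribozyme and selected for one round in triplicate at −7 °C, frozen, before gel excision of extended constructs and streptavidin-bead capture. Input and output libraries were Illumina-sequenced, keeping genotypes with ≥10 input reads and ≥1 read per output. Fitness is a logarithmic ratio of genotype to wild-type enrichment, in base 2, using inverse-variance-weighted replicate averages.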

Variant	polymerase ribozyme fitness (log ratio)
C54U U55A A120G G143U	-2.38
U55A U127A A142U	≤ -4.2
U55A A98U U135A	-1.42
C54G U55A G94U A98C A150G	-3.84
C54U C85A A119U U130G	-3.83
U55A C85U C116G G133C	-1.34
U53C U56A G58A C76A A120G U134C	-3.01
U55A C118G A147U	0.0992
C54U G59C A64C G94U A120G	≤ -4.2
C54U G58A G94U	-0.705
C54U G117C C123U	-0.0466
C54U C57G G94C U134A G136C	≤ -4.2
U55G A73G	-0.595
C54U G80U	-0.459
C54G C103U	-2.16
U53A U102G G133U U144G	≤ -4.2
U55A A97G	-0.39
U55C A91G A106C C129U C131U	≤ -4.2
C54U U55G G80U A91G A98C	-3.9
U55A G83A C105G C118A	-3.78
U55A A66G G86A A97G U146G	≤ -4.2

Variant	polymerase ribozyme fitness (log ratio)
U53C A122G	-0.671
U53G C95U U139G	-1.58
U55A C76G C85A A113U G128A	≤ -4.2
U55A A106G A119C A122G	-0.869
U53A C85A A106G U144G	-2.88
C54U G126U	0.161
U53A G84U C103G U148G	≤ -4.2
U53C C116G	0.204
C54A A89G U90A C99G	≤ -4.2
C54U A97U A107C	≤ -4.2
C54U U56A A60G G84U G126U	-1.81
U53A C57G C75G G83C U102A A121U U144A U145C	≤ -4.2
C54A U90G	≤ -4.2
U55A C85G C125U U144A	-3.47
C54A C85U C108U	≤ -4.2
C54G A66U A137G	≤ -4.2
U55A U56A C57A C85U G86A C103G	≤ -4.2
C54G A122G U144G	-0.687
U55C C57G	0.125
U53A C95U U104G A115U C123U	-3.81
C54U U56G C57U C76U C95G	-2.9

Variant	polymerase ribozyme fitness (log ratio)
U53A C75U C103U	-3.14
C54U G81A C93U C105A	-2.59
C54U C87A A89G C96U A121U A142C	≤ -4.2
U55A G59U C87U	-2.31
C54U C85U G136U	-2.08
U53A G58C G59U A91G C108A G124U G126U	≤ -4.2
U55A G65U G70U C87A C95U A98G A137C G141A G143C	≤ -4.2
U55A G74A	-3.26
U55A G59A C116A	2.35
U53G G59C A147C	-0.875
C54U G84A	-0.613
U53A G59C C87U C96A A113G C125U	≤ -4.2
C54G U56G G92A	≤ -4.2
C54U A142U	-0.665
U55A C116U	-0.684
U53A G86C	-3.25
U53A G86U	-2.14
U53A C57U	-1.2
U53A C57A	-0.577
U53A C54U C57A G62A C85A G126U	≤ -4.2
U53A G65A	-1.33

Variant	polymerase ribozyme fitness (log ratio)
U55C A91G	-3.06
U55A G83U A137G	-2.28
U53A C85U C105G	≤ -4.2
U55C G88A C96U	≤ -4.2
U53G C54G C57U C95U	-4.07
C54U C123U G124A U144C	-0.47
U53C C57U A60G C69A A97U G141A U146C	-0.526
U55A G71A G80C	≤ -4.2
C54G C87U G143C	-3.99
U53A C76A C87U A107C	≤ -4.2
U53A C54A G58C A64C G126A U135C A138C	≤ -4.2
C54A C116U G143U	-3.09
U55C C57A A73G C96U A121C C131U	1.56
U53A C75G	≤ -4.2
U55A G88C U90C A122G G124A U148A	-4.18
U53A C96U C118A	-1.21
U55A G86U	-1.44
U55A G86A	-1.59
U55A U148A	-3.84
U55A A98U U111C	-4.16
U53A G68U G88U U90C	≤ -4.2
